# Source: KR20190044006A (dated 2019)
# B1: 단일 클론 항체 AT2F7 (antibody, V domains shown)
# VH: EVKLVESGGGLVKPGGSLKLSCAASGFTFSSYTMSWVRQTPEKRLEWVATISSGGSYTYYPDSVKGRFTISRDNAKNTLYLQMSSLKSEDTAMYYCTRDLYDGYFYYAMDYWGQGTSVTVSS
# VL: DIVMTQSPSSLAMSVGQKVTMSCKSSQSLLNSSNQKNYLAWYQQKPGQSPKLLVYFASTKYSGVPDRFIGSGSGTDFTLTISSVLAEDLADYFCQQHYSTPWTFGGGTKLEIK
# Target: 재조합 MERS-CoV S1-RBD 단백질 (MERS-CoV EMC/2012, UniProt K9N5Q8 358-606)
# Assay: ELISA screening of hybridoma supernatants on RBD antigen
binder,measurement,value
B1,binding result,binds
